Results: the RNAGym collection of RNA variant scans (doi:10.1073/pnas.2313332121)
Variants at the floor of the assay were thinned out.

B1: TPR 5TU (parent)
chain: GGAUCUUCUCGAUCUAACAAAAAAGACAAAUCUGCCACAAAGCUUGAGAGCAUCUUCGGAUGCAGAGGCGGCAGCCUUCGGUGGCGCGAUAGCGCCAACGUUCUCAACUAUGACACGCAAAACGCGUGCUCCGUUGAAUGGAGUUUAUCAUG

Variants of: B1
Experiment: polymerase ribozyme fitness, log enrichment relative to wild type (log ratio); higher = more active; in vitro selection for triplet polymerase activity
Summary of the method: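 Only genotypes with ≥10 input reads and ≥1 read per output were kept after Illumina sequencing of input and output libraries. These libraries were PCR-built, transcribed mutants of each subunit of a heterodimeric triplet polymerase ribozyme, each put through one triplicate in vitro selection round with frozen incubation at −7 °C, gel excision of extended constructs, streptavidin-bead capture and RT-PCR. Fitness is a logarithmic ratio of genotype enrichment to wild-type enrichment, from inverse-variance-weighted replicate averages, with the logarithm in base 2.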

Going from C99U G117C to G117A, the “polymerase ribozyme fitness (log ratio)” value falls from 0.786 to 0.231.

Going from G117C to G117U, the “polymerase ribozyme fitness (log ratio)” value falls from 0.422 to -0.0156.

Compared with A115G U146A, C114U U139C is lower in “polymerase ribozyme fitness (log ratio)” value: -1.38 for the first, -3.63 for the second.

Going from A98U A107U C125A A147G to A98U C118U U144G, the “polymerase ribozyme fitness (log ratio)” value rises from at most -4.2 to 0.244.

Compared with A97U G152A, C103U U134A is higher in “polymerase ribozyme fitness (log ratio)” value: -2.62 for the first, -2.39 for the second.

Going from C108U G136U to C96U A97G, the “polymerase ribozyme fitness (log ratio)” value rises from -3.41 to -0.535.

Compared with C96U A97U, A97G A98U is higher in “polymerase ribozyme fitness (log ratio)” value: -0.832 for the first, -0.253 for the second.

First: C118U A120G G143C
Second: A110C A121U
The “polymerase ribozyme fitness (log ratio)” value of the first is higher: -2.13 for the first, -4.04 for the second.

Compared with C96G U130C, C96A U134C A138G G141C is lower in “polymerase ribozyme fitness (log ratio)” value: 0.873 for the first, -4.07 for the second.

A98G U127G G141A and C96A U151G cannot be ordered by “polymerase ribozyme fitness (log ratio)” value: at most -4.2 for the first, at most -4.2 for the second.

Going from U102A C114U A115G A120U to G126A G133C U146C, the “polymerase ribozyme fitness (log ratio)” value rises from -3.62 to -2.5.

First: C116G G124C U148C
Second: U102A A113C
The “polymerase ribozyme fitness (log ratio)” value of the first is lower: at most -4.2 for the first, -3.86 for the second.

Going from A113C U148C to A98U U127G, the “polymerase ribozyme fitness (log ratio)” value rises from -3.73 to -3.18.

C96U A122C and C96U A122G are within 0.2 log units of each other in “polymerase ribozyme fitness (log ratio)” value: -0.314 for the first, -0.14 for the second.

First: U101G A138U
Second: C125A U148C
The “polymerase ribozyme fitness (log ratio)” value of the first is higher: -3.25 for the first, -3.48 for the second.

Compared with C125A U148A, C96U G124A A147U is higher in “polymerase ribozyme fitness (log ratio)” value: -3.93 for the first, 0.911 for the second.

First: C99U G126A G143U
Second: A97G U101G
The “polymerase ribozyme fitness (log ratio)” value of the first is lower: -3.55 for the first, 0.358 for the second.

First: C96G G112A
Second: C125U
The “polymerase ribozyme fitness (log ratio)” value of the first is lower: -4.07 for the first, -0.476 for the second.

Compared with C125G, C125A is higher in “polymerase ribozyme fitness (log ratio)” value: -0.473 for the first, -0.171 for the second.

Going from C95U G124C to G126A C132U, the “polymerase ribozyme fitness (log ratio)” value rises from -0.723 to -0.105.

First: C96G C114U
Second: C96G C114A
The “polymerase ribozyme fitness (log ratio)” value of the first is higher: -2.18 for the first, -4.19 for the second.

First: G128A G136A
Second: U102G C116G
The “polymerase ribozyme fitness (log ratio)” value of the first is lower: -4.18 for the first, -1.67 for the second.

Compared with C103A A107C A142C, A98U A150C is higher in “polymerase ribozyme fitness (log ratio)” value: at most -4.2 for the first, -2.82 for the second.

First: C103A A150G
Second: A113G A147C
The “polymerase ribozyme fitness (log ratio)” value of the first is lower: -4.09 for the first, -2.73 for the second.

Going from C96G C116A A138C A147C to A107G G141A, the “polymerase ribozyme fitness (log ratio)” value rises from -3.36 to -2.72.

Compared with A107G G141C, A121G U127C is higher in “polymerase ribozyme fitness (log ratio)” value: -3.86 for the first, -2.42 for the second.

Compared with A110G C149G, A97G G133A is higher in “polymerase ribozyme fitness (log ratio)” value: -3.83 for the first, -3.61 for the second.

First: G128A G133U
Second: A98G U101C G143U C149U
The “polymerase ribozyme fitness (log ratio)” value of the first is higher: -4 for the first, at most -4.2 for the second.

Going from A119U G126A U135C G141C to A107U U109G, the “polymerase ribozyme fitness (log ratio)” value falls from -3.75 to at most -4.2.

Compared with A107G A121U, A98G U127C is higher in “polymerase ribozyme fitness (log ratio)” value: -4.18 for the first, -3.01 for the second.

Going from U101G G133U to A121U G143C, the “polymerase ribozyme fitness (log ratio)” value rises from -2.8 to -1.7.

Compared with C95U G141U, U101C is lower in “polymerase ribozyme fitness (log ratio)” value: 0.762 for the first, 0.385 for the second.

Going from U101G to U101A, the “polymerase ribozyme fitness (log ratio)” value falls from 0.557 to 0.177.

First: U104C C116G
Second: A107U U135C
The “polymerase ribozyme fitness (log ratio)” value of the first is higher: 0.144 for the first, -4.04 for the second.

C123A G141C and C105U A106C are within 0.2 log units of each other in “polymerase ribozyme fitness (log ratio)” value: 0.333 for the first, 0.388 for the second.

First: A121G G141U C149U
Second: U102C C131U U134G
The “polymerase ribozyme fitness (log ratio)” value of the first is higher: -3.72 for the first, -4.13 for the second.

Going from C123A C132G to A121G A122C A137C, the “polymerase ribozyme fitness (log ratio)” value falls from -3.17 to -4.06.

Going from C96A A98U C103G U109A A121U to C116A U148C, the “polymerase ribozyme fitness (log ratio)” value rises from at most -4.2 to -3.09.

Compared with C125A U146C, C125A U146G is higher in “polymerase ribozyme fitness (log ratio)” value: -0.394 for the first, -0.126 for the second.

C99A A120C U148G and C96U U102G U144A A150U cannot be ordered by “polymerase ribozyme fitness (log ratio)” value: at most -4.2 for the first, at most -4.2 for the second.

Going from C105U A138U to U130A, the “polymerase ribozyme fitness (log ratio)” value rises from -2.82 to -1.66.

For U130C, the “polymerase ribozyme fitness (log ratio)” value was 1.27.
